This data set can be described thus: protein stability index of a GFP-peptide fusion (yeast GPS) (PSI 1-4); higher = more stable; sorted into four equal gates, so the index is relative within each strain. The method, boiled down: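 Plasmids in a pooled yeast library fused tiled 17-residue yeast protein peptides downstream of GFP and also expressed Cherry. Mid-log cultures grown without leucine were sorted into four equal gates by GFP/Cherry fluorescence ratio. Each gate's plasmids were PCR-amplified and Illumina-sequenced, and reads were matched to strains by barcodes. The protein stability index is derived by multiplying each gate's read frequency by its gate number and summing the results.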

± gives the uncertainty stated by the source.

As to TSMTGDANLLEEGETSR [SWI3], the protein stability index is, setting by setting: (doa10∆) 3.2 ± 0.092; (pdr5∆) 3.35 ± 0.097; (san1∆) 3.2 ± 0.037; (ubr1∆) 3.3 ± 0.041.

Sequence KDAQKKDIEKLTNEISD [YIL149C/MLP2] returned a protein stability index (doa10∆) of 2.54 ± 0.086, a protein stability index (pdr5∆) of 2.98 ± 0.07, a protein stability index (san1∆) of 2.65 ± 0.061 and a protein stability index (ubr1∆) of 2.49 ± 0.078.

Regarding KLHFKDTKPFLNKDSTN [NUT1], the protein stability index is, setting by setting: (doa10∆) 2.51 ± 0.098; (pdr5∆) 2.23 ± 0.073; (san1∆) 1.99 ± 0.071; (ubr1∆) 2.6 ± 0.041.

With KFQLQNQLEDFILELEH [YIL149C/MLP2], the protein stability index stood at 2.72 ± 0.081 (doa10∆), 1.95 ± 0.099 (pdr5∆), 2.11 ± 0.11 (san1∆) and 1.91 ± 0.086 (ubr1∆).

For NYLLKRNEDARRNLRYG [RPO31], the protein stability index runs as follows: (doa10∆) 3.35 ± 0.1; (pdr5∆) 3.41 ± 0.094; (san1∆) 3.51 ± 0.12; (ubr1∆) 3.56 ± 0.056.

With LVIGIFKRDLLREKEDK [YJL039C/NUP192], the protein stability index runs as follows: (doa10∆) 2.95 ± 0.098; (pdr5∆) 2.28 ± 0.11; (san1∆) 2.86 ± 0.069; (ubr1∆) 2.34 ± 0.1.

In the case of KPELRKKVMPAIVVRQA [RPL23A], the protein stability index reads like this: (doa10∆) 2.83 ± 0.14; (pdr5∆) 2.87 ± 0.086; (san1∆) 2.61 ± 0.16; (ubr1∆) 2.97 ± 0.063.

Take DIIVAIKIFELKLPADA [IRR1]: the protein stability index is, setting by setting: (doa10∆) 1.54 ± 0.078; (pdr5∆) 1.21 ± 0.071; (san1∆) 1.59 ± 0.14; (ubr1∆) 1.83 ± 0.052.

As for GSELVQKYVGEGARMVR [RPT1], the protein stability index reads like this: (doa10∆) 2.57 ± 0.22; (pdr5∆) 2.84 ± 0.085; (san1∆) 3 ± 0.085; (ubr1∆) 2.81 ± 0.05.

PALLRPGRLDRKIEFPS [RPT3]: the protein stability index reads like this: (doa10∆) 3.2 ± 0.11; (pdr5∆) 3.08 ± 0.11; (san1∆) 3.07 ± 0.11; (ubr1∆) 3 ± 0.066.

On to DITGIRDVSDDVFDTLA [GRR1], for which the protein stability index by setting is: (doa10∆) 3.02 ± 0.12; (pdr5∆) 3.04 ± 0.07; (san1∆) 2.95 ± 0.075; (ubr1∆) 2.97 ± 0.067.

Turning to SWEEGTRQSSRNFDTHE [MCD1], the protein stability index is 3.26 ± 0.12 (doa10∆), 3.59 ± 0.13 (pdr5∆), 3.31 ± 0.1 (san1∆) and 3.38 ± 0.15 (ubr1∆).

AGDIQLQYGWKVERHIM [RPO21]: the protein stability index came to 1.18 ± 0.067 (doa10∆), 1.24 ± 0.12 (pdr5∆), 1.36 ± 0.19 (san1∆) and 1.24 ± 0.098 (ubr1∆).

NRKVRAGRGFTLAEVKA [RPL13A]: the protein stability index runs as follows: (doa10∆) 2.84 ± 0.054; (pdr5∆) 2.97 ± 0.061; (san1∆) 2.82 ± 0.043; (ubr1∆) 2.48 ± 0.044.

With LLTKNVSCYRPRRDGER [RPS6A], the protein stability index (doa10∆) is 1.24 ± 0.22, the protein stability index (pdr5∆) is 2.8 ± 0.12, the protein stability index (san1∆) stood at 3.19 ± 0.085 and the protein stability index (ubr1∆) is 3.4 ± 0.096.

For QRCKSNAISLQLKYDTS [YIL149C/MLP2], the protein stability index stood at 1.78 ± 0.062 (doa10∆), 1.66 ± 0.054 (pdr5∆), 1.86 ± 0.12 (san1∆) and 1.79 ± 0.047 (ubr1∆).

Regarding MKPSDNISTNTNIHEPQ [SSN2], the protein stability index by setting is: (doa10∆) 3.19 ± 0.042; (pdr5∆) 3.08 ± 0.051; (san1∆) 3.1 ± 0.042; (ubr1∆) 3.06 ± 0.052.

As for NNSNNNNIIRIQQLISQ [SNF11], the protein stability index by setting is: (doa10∆) 2.25 ± 0.06; (pdr5∆) 2.39 ± 0.075; (san1∆) 2.54 ± 0.08; (ubr1∆) 2.69 ± 0.046.

Turning to AHMWPRVHDQPLIWQLL [POP3], the protein stability index by setting is: (doa10∆) 1.42 ± 0.12; (pdr5∆) 1.64 ± 0.12; (san1∆) 1.44 ± 0.23; (ubr1∆) 1.51 ± 0.11.
